Measurements taken from patent US20240116985A1 (published 2024).
Starred links: 1 amine or outer side, 2 acyl side, 3 side chain; linkers in the order of their positions; H or OH if unused. Positions of bridges follow the written chain, without caps; N, C: chain ends. Non-standard residues stand in square brackets, D forms with d. Primed or numbered codes have the meaning given here. PyrS2″ = (S)-3-amino-1-((pent-4-en-1-yloxy)carbonyl)pyrrolidine-3-carboxylic acid (stapling residue), C=CCCCOC(=O)N1CC[C@@](N[*:1])(C(=O)[*:2])C1; SeN″ = (S)-5-(((allyloxy)carbonyl)(methyl)amino)-2-amino-2-methylpentanoic acid (stapling residue), C=CCOC(=O)N(C)CCC[C@](C)(N[*:1])C(=O)[*:2]; B5(4) = 2,2-bis(4-pentenyl)glycine = 2-amino-2-(pent-4-en-1-yl)hept-6-enoic acid (stitching residue), C=CCCCC(CCCC=C)(N[*:1])C(=O)[*:2]; B5(5) = 2,2-bis(4-pentenyl)glycine, 2-amino-2-(pent-4-en-1-yl)hept-6-enoic acid (stitching residue), C=CCCCC(CCCC=C)(N[*:1])C(=O)[*:2]; PyrS2 = (S)-3-amino-1-((pent-4-en-1-yloxy)carbonyl)pyrrolidine-3-carboxylic acid, C=CCCCOC(=O)N1CC[C@@](N[*:1])(C(=O)[*:2])C1; B5 = 2-amino-2-(pent-4-en-1-yl)hept-6-enoic acid, C=CCCCC(CCCC=C)(N[*:1])C(=O)[*:2]; Phe(3-CF3) = N[C@@H](Cc1cccc(C(F)(F)F)c1)C(=O)O; Phe(3-COOH) = N[C@@H](Cc1cccc(C(=O)O)c1)C(=O)O; Phe(2-CF3) = N[C@@H](Cc1ccccc1C(F)(F)F)C(=O)O; Bta = N[C@@H](Cc1csc2ccccc12)C(=O)O; αAllylPro = C=CC[C@@]1(C(=O)O)CCCN1; tBuAla = CC(C)(C)C[C@H](N)C(=O)O; 3Thi = N[C@@H](Cc1ccsc1)C(=O)O; Cha = N[C@@H](CC1CCCCC1)C(=O)O; S8 = C=CCCCCCC[C@](C)(N)C(=O)O; hSer = N[C@@H](CCO)C(=O)O; 34ClF = not defined here; Aib = CC(C)(N)C(=O)O

T1: full-length beta-Catenin (Uniprot ID P35222) (Homo sapiens (Human), UniProt P35222 2-781)
T1 construct: The AlphaScreen assay used a Histidine (Nickel Chelate) detection kit, so a His tag is likely, but no tag is described; also called B-Catenin; bCat
T1 sequence: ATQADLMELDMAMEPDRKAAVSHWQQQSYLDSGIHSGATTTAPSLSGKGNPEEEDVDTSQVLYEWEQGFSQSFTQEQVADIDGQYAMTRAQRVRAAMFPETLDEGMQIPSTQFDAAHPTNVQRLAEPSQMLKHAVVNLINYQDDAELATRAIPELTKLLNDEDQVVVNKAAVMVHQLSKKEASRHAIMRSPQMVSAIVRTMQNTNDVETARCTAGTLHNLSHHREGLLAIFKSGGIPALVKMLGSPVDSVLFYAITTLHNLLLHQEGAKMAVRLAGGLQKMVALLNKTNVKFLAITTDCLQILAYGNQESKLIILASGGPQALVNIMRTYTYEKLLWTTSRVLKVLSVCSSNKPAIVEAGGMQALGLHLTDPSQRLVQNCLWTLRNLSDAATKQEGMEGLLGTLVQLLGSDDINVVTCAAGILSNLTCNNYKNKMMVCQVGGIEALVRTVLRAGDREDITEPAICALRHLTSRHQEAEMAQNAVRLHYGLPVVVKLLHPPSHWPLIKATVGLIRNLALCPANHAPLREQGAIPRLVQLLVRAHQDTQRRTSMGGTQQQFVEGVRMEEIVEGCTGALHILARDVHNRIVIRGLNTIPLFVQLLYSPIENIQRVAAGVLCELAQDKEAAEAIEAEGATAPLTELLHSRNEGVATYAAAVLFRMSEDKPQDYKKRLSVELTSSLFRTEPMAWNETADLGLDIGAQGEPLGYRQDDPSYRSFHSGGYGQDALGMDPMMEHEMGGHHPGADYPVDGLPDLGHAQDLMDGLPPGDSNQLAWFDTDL

T2: B-cat-Halo (UniProt P35222 1-781)
T2 sequence (looked up): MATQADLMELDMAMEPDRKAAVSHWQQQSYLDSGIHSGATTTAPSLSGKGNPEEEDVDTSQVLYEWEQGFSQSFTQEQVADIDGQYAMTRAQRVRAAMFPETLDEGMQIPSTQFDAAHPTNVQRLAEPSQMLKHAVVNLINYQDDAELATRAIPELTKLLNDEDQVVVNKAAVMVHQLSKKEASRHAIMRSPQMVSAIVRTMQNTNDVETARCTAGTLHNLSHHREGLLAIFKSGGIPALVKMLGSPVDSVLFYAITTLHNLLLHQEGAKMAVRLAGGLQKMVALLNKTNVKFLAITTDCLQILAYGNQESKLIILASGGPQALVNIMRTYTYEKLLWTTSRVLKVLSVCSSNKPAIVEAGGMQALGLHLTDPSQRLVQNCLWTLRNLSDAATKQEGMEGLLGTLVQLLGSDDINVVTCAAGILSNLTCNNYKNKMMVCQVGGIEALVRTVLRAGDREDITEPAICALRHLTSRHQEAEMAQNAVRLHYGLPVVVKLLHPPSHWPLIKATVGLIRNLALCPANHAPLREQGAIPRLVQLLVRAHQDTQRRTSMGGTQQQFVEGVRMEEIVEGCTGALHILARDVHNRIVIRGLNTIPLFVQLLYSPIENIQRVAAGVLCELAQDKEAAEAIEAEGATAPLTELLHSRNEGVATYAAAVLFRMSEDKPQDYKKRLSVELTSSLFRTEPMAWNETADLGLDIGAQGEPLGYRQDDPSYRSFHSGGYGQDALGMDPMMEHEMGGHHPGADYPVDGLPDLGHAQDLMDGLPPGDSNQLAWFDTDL

T3: full-length beta-Catenin (Uniprot ID P35222) (Homo sapiens (Human), UniProt P35222 2-781)
T3 construct: also called B-Catenin; bCat
T3 sequence: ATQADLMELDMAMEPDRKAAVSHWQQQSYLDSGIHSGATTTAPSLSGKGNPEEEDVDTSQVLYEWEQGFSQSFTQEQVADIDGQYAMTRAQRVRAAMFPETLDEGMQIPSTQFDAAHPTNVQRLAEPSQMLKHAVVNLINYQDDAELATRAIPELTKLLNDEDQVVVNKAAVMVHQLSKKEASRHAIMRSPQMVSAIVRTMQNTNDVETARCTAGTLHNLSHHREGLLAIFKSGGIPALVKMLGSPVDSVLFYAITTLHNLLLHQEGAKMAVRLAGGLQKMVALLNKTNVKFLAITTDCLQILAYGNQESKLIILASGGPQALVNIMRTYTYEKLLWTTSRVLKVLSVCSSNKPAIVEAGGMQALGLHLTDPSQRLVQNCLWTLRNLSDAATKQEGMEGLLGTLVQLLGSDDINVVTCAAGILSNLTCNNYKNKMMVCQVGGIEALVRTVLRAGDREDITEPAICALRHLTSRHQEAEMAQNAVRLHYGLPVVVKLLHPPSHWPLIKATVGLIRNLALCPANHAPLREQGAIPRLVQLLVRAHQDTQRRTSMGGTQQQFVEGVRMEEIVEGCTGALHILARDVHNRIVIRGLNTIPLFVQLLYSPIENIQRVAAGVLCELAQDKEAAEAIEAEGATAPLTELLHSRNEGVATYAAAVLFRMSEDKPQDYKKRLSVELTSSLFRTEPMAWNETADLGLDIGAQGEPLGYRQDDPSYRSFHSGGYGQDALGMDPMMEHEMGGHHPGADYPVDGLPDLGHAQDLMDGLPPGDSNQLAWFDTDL

T4: beta-catenin in DLD1 TCF/LEF luciferase reporter cells (UniProt P35222 1-781)
T4 sequence (looked up): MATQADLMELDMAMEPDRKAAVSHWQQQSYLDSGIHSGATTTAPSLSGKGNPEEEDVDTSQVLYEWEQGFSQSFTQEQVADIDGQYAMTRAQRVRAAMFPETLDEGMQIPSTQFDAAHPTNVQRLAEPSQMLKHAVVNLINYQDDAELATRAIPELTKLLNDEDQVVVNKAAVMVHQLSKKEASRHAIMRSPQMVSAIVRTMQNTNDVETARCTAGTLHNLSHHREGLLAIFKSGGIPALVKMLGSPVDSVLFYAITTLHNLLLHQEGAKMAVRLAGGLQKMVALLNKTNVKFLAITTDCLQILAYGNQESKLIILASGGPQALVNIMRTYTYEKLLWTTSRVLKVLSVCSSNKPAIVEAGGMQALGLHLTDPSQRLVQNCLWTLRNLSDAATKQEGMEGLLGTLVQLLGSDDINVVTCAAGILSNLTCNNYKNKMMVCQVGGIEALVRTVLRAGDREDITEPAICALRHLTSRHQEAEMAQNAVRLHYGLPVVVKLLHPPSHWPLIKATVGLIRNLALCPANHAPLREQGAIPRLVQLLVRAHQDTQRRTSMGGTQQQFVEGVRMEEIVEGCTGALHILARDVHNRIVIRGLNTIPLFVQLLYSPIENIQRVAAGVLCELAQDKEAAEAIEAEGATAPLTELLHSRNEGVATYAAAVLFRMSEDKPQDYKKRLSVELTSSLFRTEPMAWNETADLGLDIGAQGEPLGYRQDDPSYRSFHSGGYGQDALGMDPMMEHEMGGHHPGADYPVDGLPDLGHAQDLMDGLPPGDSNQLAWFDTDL


Experiments:
[1] = target: T1, full-length beta-Catenin (Uniprot ID …); assay: AlphaScreen competition: full-length beta-catenin + biotin-TCF4(10-53) probe, peptide titrated
Protocol: (§1) Equal volume of the titrated peptide was added to the plate and incubated for 15 minutes at 20° C. Then 4 uL of donor and 4 uL acceptor beads at 10 ug/mL were added to the plate, for a 16 uL reaction pool and protected from light for 60 minutes at 20° C. prior to read. Reads were performed on a CLARIOstar plate reader (BMG Labtech) in duplicate, and data were fitted to a 1:1 binding model with hill slope using an in-house script. All provided concentrations are final concentrations.

[2] = target: T1, full-length beta-Catenin (Uniprot ID …); assay: fluorescence polarization competition: full-length beta-catenin + 5FAM-TCF4(10-53) probe, peptide titrated
Protocol: (§2) The plate was incubated protected from light for 60 minutes at 20° C. prior to read. Reads were performed on a CLARIOstar plate reader (BMG Labtech) in duplicate, and data were fitted to a 1:1 binding model with hill slope using an in-house script. All provided concentrations are final concentrations.

B-cat-Halo = target: T2, B-cat-Halo; assay: cell-based or functional assay
[3] = target: T3, full-length beta-Catenin (Uniprot ID …); assay: Alphascreen competition; biotin-TCF4(10-53) probe with full-length beta-catenin
Protocol: as §1

[4] = target: T3, full-length beta-Catenin (Uniprot ID …); assay: fluorescence polarization competition; 5FAM-TCF4(10-53) probe with full-length beta-catenin
Protocol: as §2

[5] = target: T4, beta-catenin in DLD1 TCF/LEF luciferase …; assay: cell-based or functional assay

EC50 [1] [nM] | EC50 [2] [nM] | NanoBRET Abs IC50 (B-cat-Halo) [nM] | Binder | also measured
1960 | 5000 |  | XDAXDDAAFVXFWQ (not fully specified; N-terminal Ac; C-terminal NH2; PL3 at 1, B5 at 4, S8 at 11 (staples 1-4 and 4-11 by olefin metathesis); 4F3MeF at 12, Stapled peptide composition; also called Ac-PL3-Asp-Ala-B5-Asp-Asp-Ala-Ala-Phe-Val-S8-4F3MeF-Trp-Gln-NH2) [I-254] | 
 |  | > 20000 | Ac-[αAllylPro]N[Cha][B5(5)]DQ[hSer]AFL[PyrS2″]F[Bta]K-NH2 (staple 1-4, 4-11) [I-2419] | 
1200 | 5000 |  | Ac-[αAllylPro]DA[B5]DDAAFV[S8][Phe(3-CF3)]WQ-NH2 (staple 1-4, 4-11, Stapled peptide composition; also called Ac-PL3-Asp-Ala-B5-Asp-Asp-Ala-Ala-Phe-Val-S8-3F3MeF-Trp-Gln-NH2) [I-250] | 
 |  | 21600 | Ac-[αAllylPro]D[tBuAla][B5(5)]NT[Aib]AFN[PyrS2″][3Thi][34ClF]Q-NH2 (staple 1-4, 4-11; reading uncertain; also: printed as Ac-PL3-Asp-Npg-B5-Asn-Thr-Aib-Ala-Phe-Asn-PyrS2-3Thi-34C1F-Gln-NH2) [I-2417] | 
 |  |  | Ac-[αAllylPro]DA[B5(4)]DEAAFV[SeN″]FWQ-NH2 (staple 1-4, 4-11, Stitched (two-staple) peptide composition; same description as I-130, separate later-eluting HPLC peak (staple isomer)) [I-131] | EC50 [3]: 400 nM; EC50 [4]: 2160 nM
 |  |  | Ac-[αAllylPro]D[tBuAla][B5(5)]D[Phe(3-COOH)]AAFL[PyrS2][Phe(2-CF3)][Bta]QL[dL]-NH2 (staple 1-4, 4-11) [I-2396] | DLD1 4% Abs IC50 [5]: 1500 nM
